B1: LRRC4B mutant: LRRC4B (453-576) with alanine substitutions at positions 488 and 489 of SEQ ID NO: 2 (protein)
chain: VSAVDPVAAGGTGSGGGGPGGSGGVGGGSGGYTYFAAVTVETLETQPGEEALQPRGTEKEPPGPTTDGVWGGGRPGDAAGPASSSTTAPAPRSSRPTEKAFTVPITDVTENALKDLDDVMKTTK
modifications: human Fc
B2: full-length ectodomain of LRRC4B protein (amino acids 36-576 of SEQ ID NO: 2) conjugated to human Fc (Fc fusion, not shown: a dimerising Fc or GST)
chain: AGGGGVAVTSAAGGGSPPATSCPVACSCSNQASRVICTRRDLAEVPASIPVNTRYLNLQENGIQVIRTDTFKHLRHLEILQLSKNLVRKIEVGAFNGLPSLNTLELFDNRLTTVPTQAFEYLSKLRELWLRNNPIESIPSYAFNRVPSLRRLDLGELKRLEYISEAAFEGLVNLRYLNLGMCNLKDIPNLTALVRLEELELSGNRLDLIRPGSFQGLTSLRKLWLMHAQVATIERNAFDDLKSLEELNLSHNNLMSLPHDLFTPLHRLERVHLNHNPWHCNCDVLWLSWWLKETVPSNTTCCARCHAPAGLKGRYIGELDQSHFTCYAPVIVEPPTDLNVTEGMAAELKCRTGTSMTSVNWLTPNGTLMTHGSYRVRISVLHDGTLNFTNVTVQDTGQYTCMVTNSAGNTTASATLNVSAVDPVAAGGTGSGGGGPGGSGGVGGGSGGYTYFTTVTVETLETQPGEEALQPRGTEKEPPGPTTDGVWGGGRPGDAAGPASSSTTAPAPRSSRPTEKAFTVPITDVTENALKDLDDVMKTTK
B3: full-length ectodomain of LRRC4 protein (amino acid residues 39-527 of SEQ ID NO: 1) conjugated to human Fc (Fc fusion, not shown: a dimerising Fc or GST)
chain: ASAGPQNCPSVCSCSNQFSKVVCTRRGLSEVPQGIPSNTRYLNLMENNIQMIQADTFRHLHHLEVLQLGRNSIRQIEVGAFNGLASLNTLELFDNWLTVIPSGAFEYLSKLRELWLRNNPIESIPSYAFNRVPSLMRLDLGELKKLEYISEGAFEGLFNLKYLNLGMCNIKDMPNLTPLVGLEELEMSGNHFPEIRPGSFHGLSSLKKLWVMNSQVSLIERNAFDGLASLVELNLAHNNLSSLPHDLFTPLRYLVELHLHHNPWNCDCDILWLAWWLREYIPTNSTCCGRCHAPMHMRGRYLVEVDQASFQCSAPFIMDAPRDLNISEGRMAELKCRTPPMSSVKWLLPNGTVLSHASRHPRISVLNDGTLNFSHVLLSDTGVYTCMVTNVAGNSNASAYLNVSTAELNTSNYSFFTTVTVETTEISPEDTTRKYKPVPTTSTGYQPAYTTSTTVLIQTTRVPKQVAVPATDTTDKMQTSLDEVMKTTK
B4: FB-21 (W12Y13) (peptide)
peptide: GYTYFTTVTVEWYETQPGEEA
B5: LRRC4B (484-576): LRRC4B ectodomain fragment, amino acids 484-576 of SEQ ID NO: 2 (protein)
chain: YTYFTTVTVETLETQPGEEALQPRGTEKEPPGPTTDGVWGGGRPGDAAGPASSSTTAPAPRSSRPTEKAFTVPITDVTENALKDLDDVMKTTK

Columns and labels:
[1] = biological target: T1, FAM19A5 isoform 2 - LRRC4B protein complex in HEK293 cells (Homo sapiens, UniProt Q7Z5A7); assay: Immunofluorescence: dissociation of FAM19A5 from full-length LRRC4B in HEK293 cells; assay type: cell-based; conditions: HEK293 cells expressing FAM19A5 isoform 2 and LRRC4B, treated 30 minutes
T1 construct: expressed in transfected cells; host or cells: HEK293
T1 sequence (Q7Z5A7 1-125 isoform Q7Z5A7-2, one chain of several): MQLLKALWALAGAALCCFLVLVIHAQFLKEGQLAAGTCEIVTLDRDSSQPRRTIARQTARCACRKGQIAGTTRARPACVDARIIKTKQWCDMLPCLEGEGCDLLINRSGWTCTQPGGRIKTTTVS
Procedure: Since LRRC4B protein fragments containing the binding domain described in Example 2 (e.g., LRRC4B (453-576); i.e., construct #11 in Table 6) was able to bind to FAM19A5 protein with high affinity, it was next assessed whether such protein fragments could compete with naturally existing LRRC4B protein for binding to FAM19A5 protein, and thereby, dissociate the FAM19A5-LRRC4 protein family complex. Briefly, HEK293 cells expressing both FAM19A5 isoform 2 and LRRC4B protein were treated in vitro for 30 minutes with either LRRC4B (453-576)-hFc or mutant LRRC4B (453-576)-hFc (includes alanine substitutions at positions 488 and 489 of SEQ ID NO: 2; SEQ ID NO: 16) protein fragments. Then, cells were immunostained with anti-FAM19A5 (1-65) and anti-LRRC4B antibodies to determine the expression of FAM19A5 and full-length LRRC4B proteins, respectively. The hFc-fused LRRC4B protein fragments were determined using an anti-hIgG antibody. The nuclei were stained with Hoechst 33342.

[2] = biological target: binding of FAM19A5 protein to full-length ectodomain of the LRRC4B protein (amino acids 36-576 of SEQ ID NO: 2) (Homo sapiens, UniProt Q7Z5A7); assay: Competitive inhibition assay, plate coated with full-length ectodomain of LRRC4B (amino acids 36-576); conditions: increasing concentrations; FAM19A5 5 ng/mL; 100 nM coat
binding of FAM19A5 protein to full-length ectodomain of the LRRC4B protein (amino acids 36-576 of SEQ ID NO: 2), sequence (Q7Z5A7 44-132): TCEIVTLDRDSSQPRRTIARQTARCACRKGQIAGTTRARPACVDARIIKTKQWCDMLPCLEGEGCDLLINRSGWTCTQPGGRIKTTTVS
Procedure: Next, to further assess the role that the binding domain of the LRRC4B protein has on the interaction between FAM19A5 protein and members of the LRRC4 protein family, a competitive inhibition assay was used to determine whether different LRRC4B deletion constructs from Example 2 could inhibit the binding of FAM19A5 to the full-length ectodomain of the LRRC4B protein (i.e., amino acids 36-576 of SEQ ID NO: 2; SEQ ID NO: 5). Briefly, 100 nM of the full-length ectodomain of the LRRC4B protein was used to coat a plate, and then recombinant FAM19A5 protein (5 ng/mL) was added to the plate in combination with the following LRRC4B deletion constructs (increasing concentrations): (1) LRRC4B (453-576) (i.e., construct #11 in Table 6); (2) LRRC4B (453-576) mutant (comprises alanine substitutions at positions 488 and 489 of SEQ ID NO: 2; SEQ ID NO: 16); (3) LRRC4B (484-576) (i.e., construct #12 in Table 6); (4) LRRC4B (482-576); (5) LRRC4B (482-497); and (6) LRRC4B (498-576). The plates were incubated at 37° C., and then, the amount of FAM19A5 bound to the coated LRRC4B ectodomain protein was measured using HRP-conjugated anti-FAM19A5 (1-65) antibody.
(§1) As described in Example 3, there appeared to be much similarity in the binding domains of the different members of the LRRC4 family. […] Then, recombinant FAM19A5 protein (5 ng/mL) was added in combination with one of the following: (i) LRRC4B (484-576) protein fragment, (ii) LRRC4B (453-576, AA) protein fragment, and (iii) synthetic FB-20 peptide. The plates were incubated at 37° C., and then, the amount of FAM19A5 protein bound to the coated LRRC4, LRRC4B, or LRRC4C proteins was measured using anti-FAM19A5 (1-65) antibody.
Next, to assess whether polypeptides comprising the binding domains of LRRC4 or LRRC4C proteins can have similar inhibitory effects on LRRC4B protein binding, the following synthetic peptides were constructed: (1) FBC4-23 (contains the binding domain of the LRRC4 protein, i.e., YSFFTTVTVETTE); and (2) FBC4C-23 (contains the binding domain of the LRRC4C protein, i.e., FSYFSTVTVETME). Then, the ability of the peptides to inhibit the binding of LRRC4 protein family members to FAM19A5 protein was assessed using a competitive inhibition assay. Briefly, plates were coated with 100 nM of either LRRC4B protein fragment #1 (amino acids 36-576 of SEQ ID NO: 2; SEQ ID NO: 5) or LRRC4B protein fragment #2 (amino acids 453-576 of SEQ ID NO: 2; SEQ ID NO: 7). Then, recombinant FAM19A5 protein (5 ng/ml for plates coated with LRRC4B fragment #1; and 1 ng/mL for plates coated with LRRC4B fragment #2) was added to the plates in combination with 20 nM of the FBC4-23, FBC4C-23, and FB-20 peptides. The plates were incubated at 37° C. and then, the amount of FAM19A5 protein bound to the coated LRRC4B protein fragments was assessed using HRP-conjugated anti-FAM19A5 (1-65) antibody.
Next, to determine the minimal sequence required to inhibit the interaction of FAM19A5 and members of the LRRC4 protein family, ten FB-20 peptide variants were constructed by serially deleting one or more amino acids from the N-terminus or C-terminus of the FB-20 peptide. Then, a competitive inhibition assay was used to assess the ability of the different FB-20 peptide variants to inhibit the interaction between FAM19A5 and LRRC4B protein. Again, plates were coated with 100 nM of either LRRC4B protein fragment #1 (amino acids 36-576 of SEQ ID NO: 2; SEQ ID NO: 5) or LRRC4B protein fragment #2 (amino acids 453-576 of SEQ ID NO: 2; SEQ ID NO: 7). Then, recombinant FAM19A5 protein (5 ng/ml for plates coated with LRRC4B fragment #1; and 1 ng/mL for plates coated with LRRC4B fragment #2) was added to the plates in combination with 20 nM of the different peptides described above. After incubating the plates at 37° C., the amount of FAM19A5 protein bound to the coated LRRC4B protein fragments was assessed using HRP-conjugated anti-FAM19A5 (1-65) antibody. […]

[3] = biological target: binding of FAM19A5 protein to full-length ectodomain of LRRC4 protein (Homo sapiens, UniProt Q7Z5A7); assay: Competitive inhibition assay, plate coated with full-length ectodomain of LRRC4; conditions: FAM19A5 5 ng/mL; 100 nM/well coat
binding of FAM19A5 protein to full-length ectodomain of LRRC4 protein, sequence (Q7Z5A7 44-132): as above
Procedure: as §1

[4] = biological target: binding of FAM19A5 protein to full-length ectodomain of LRRC4C protein (Homo sapiens, UniProt Q7Z5A7); assay: Competitive inhibition assay, plate coated with full-length ectodomain of LRRC4C; conditions: FAM19A5 5 ng/mL; 100 nM/well coat
binding of FAM19A5 protein to full-length ectodomain of LRRC4C protein, sequence (Q7Z5A7 44-132): as above
Procedure: as §1

FAM19A5 protein [5] = biological target: T2, FAM19A5 protein (Homo sapiens, UniProt Q7Z5A7); assay: ELISA, coated hFc-conjugated ectodomain (100 nM/well), rFAM19A5 titrated 0.005-10 nM
FAM19A5 protein [6] = biological target: T2, FAM19A5 protein; assay: competitive inhibition ELISA; competitor: coated LRRC4B(453-576, TT/TT)-hFc
FAM19A5 protein [7] = biological target: T2, FAM19A5 protein; assay: Co-immunoprecipitation of FLAG-tagged LRRC4 family deletion constructs/fragments with recombinant FAM19A5 in HEK293 cells; assay type: binding; conditions: HEK293 cells expressing FLAG-tagged construct, recombinant FAM19A5 1 μM 30 minutes; IP anti-FLAG, blot anti-FAM19A5 (3-2)
Summary of the method: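 HEK293 cells expressing FLAG-tagged LRRC4B deletion constructs or LRRC4C (aa 354-527) / LRRC4 (aa 353-527) fragments were treated with 1 μM recombinant FAM19A5 for 30 min. Lysates immunoprecipitated with anti-FLAG and immunoblotted with anti-FLAG and anti-FAM19A5 (3-2) antibodies.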
Target sequence in this assay (Q7Z5A7 44-132): as above

Row | Molecule | inhibition of FAM19A5 binding to coated full-length LRRC4B ectodomain protein (in words) [2] | inhibition of FAM19A5 binding to coated LRRC4 protein (in words) [3] | inhibition of FAM19A5 binding to coated LRRC4C protein (in words) [4] | EC50 (FAM19A5 protein [5]) | also measured
1 | B1 | much inferior in their ability to inhibit the interaction | minimal effect | minimal effect |  | dissociation of FAM19A5 from full-length LRRC4B protein [1]: remained largely bound to the full-length LRRC4B protein
2 | B2 |  |  |  | 0.64 nM | 
3 | B3 |  |  |  | 0.48 nM | 
4 | B4 |  |  |  |  | fold increase in the ability to dissociate the LRRC4B-FAM19A5 complex, compared with the wild-type FB-21 (FAM19A5 protein [6]): 2.9 fold
5 | B5 | also able to inhibit the interaction | able to inhibit FAM19A5 protein from binding | able to inhibit FAM19A5 protein from binding |  | binding to FAM19A5 protein (co-immunoprecipitation) (FAM19A5 protein [7]): able to bind to the FAM19A5 protein with varying degree
